Source: US20250289893A1 (OXFORD UNIVERSITY INNOVATION, published 2025)
Where a chain is given by its changes, count along the chain named.

T1: Cynomolgus monkey CD1a protein (Cynomolgus monkey)
T1 chain: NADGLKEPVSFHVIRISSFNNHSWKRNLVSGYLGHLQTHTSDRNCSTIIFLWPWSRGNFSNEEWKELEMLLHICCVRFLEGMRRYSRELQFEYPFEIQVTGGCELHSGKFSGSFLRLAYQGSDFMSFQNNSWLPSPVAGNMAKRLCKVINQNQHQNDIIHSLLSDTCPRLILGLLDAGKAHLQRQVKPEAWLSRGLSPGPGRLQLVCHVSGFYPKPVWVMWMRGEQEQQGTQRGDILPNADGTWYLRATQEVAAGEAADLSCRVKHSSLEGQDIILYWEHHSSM

B1: 110 (VR12112) (antibody, V domains shown)
VH: QSVEESGGRLVTPGTPLTLTCTVSGFSLSSYAMIWVRQAPGKGLEWIGIINSSDNTHYATWAKGRFTISKTSTTVDLKITSPTTEDTATYFCARDPYDYGYGWYFDLWGPGTLVTVSS
VL: AQVLTQTPSPVSAAVGGTVTINCQASQSVFNNKNLAWYQQKPGQPPKLLIYKASTLASGVSSRFKGSGSGTQFALTISGVQCDDAATYYCQGEFSCSSTDCVTFGGGTEVVVK
notes: also called OX110; antibody 110
B2: 77A (VR11851) (antibody, V domains shown)
VH: QSVEESGGRLVTPGTPLTLTCTVSGFSLSSYAMSWVRQAPGKGLEWIGIISSSGTTYYASWAKGRFTISKTSTTVDLKITSPTTEDTATYFCARVDYYSSGWGGLWGPGTLVTVSS
VL: AVEMTQTPASMSAAVGGTVTIKCQASEDIYSNLAWYQQKPGQPPKLLIYGASTLASGVPSRFKGSGSGTEYTLTISGVQCDDAATYYCQCTYDTSSYGNTFGGGTEMVVE
notes: also called OX77a; antibody 77a
B3: 111 (VR12113) (antibody, V domains shown)
VH: QSVEESGGRLVTPGTPLTLTCTASGFSLSTYAMSWVRQAPGKGLEWIGIISSSGSTYYASWAKGRFTISKTSTTVDLKITSPTTEDTATYFCARETWYWLDLWGQGTLVTVSS
VL: B2 VL with M11V, K22N, T91A, T94S, N99T, T100P, M107V, E110K
notes: also called OX111

Molecular target: T1, Cynomolgus monkey CD1a protein
Test: ELISA, 1 µg/ml antibody
For B1, the “Optical Density (OD)” value was 0.94 OD.
With B2 the “Optical Density (OD)” value was 0.43 OD.
In the case of B3, the “Optical Density (OD)” value is reported as 0.69 OD.

Molecular target: T1, Cynomolgus monkey CD1a protein
Test: ELISA, 10 µg/ml antibody
In the case of B1, the “Optical Density (OD)” value is reported as 0.86 OD.
For B2, the “Optical Density (OD)” value was 0.52 OD.
B3 was tested, and the “Optical Density (OD)” value was 0.79 OD.

What follows are binders tested against T2, human CD1a protein (pool B) (human, UniProt P06126 18-295, limits assumed) (assay: ELISA, 100 µg/ml antibody).
T2 construct: Recombinant protein of the ELISA (coated) and the Biacore T200 titration; whole entry named; also called human CD1a pool B; full length CD1a
T2 sequence (P06126 18-295 limits assumed): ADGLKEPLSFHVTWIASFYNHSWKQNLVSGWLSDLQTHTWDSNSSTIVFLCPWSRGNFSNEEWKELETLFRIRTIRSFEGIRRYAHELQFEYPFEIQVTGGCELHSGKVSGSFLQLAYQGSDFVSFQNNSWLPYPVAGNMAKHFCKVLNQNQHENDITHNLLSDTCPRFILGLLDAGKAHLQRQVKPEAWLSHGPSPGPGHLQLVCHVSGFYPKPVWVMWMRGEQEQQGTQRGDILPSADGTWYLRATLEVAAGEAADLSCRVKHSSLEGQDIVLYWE
Protocol: (§1) CD1a-specific antibodies were identified by ELISA. […] 20 μl/well of peroxidase-conjugated goat anti-species IgG Fc-specific F(ab′)2 fragment (Jackson ImmunoResearch), diluted 1:5000 in block buffer was added and incubated at room temperature for 1 hour, followed by washing with wash buffer.
The antibodies were titrated through a dilution series and compared to a control rabbit IgG antibody.
With B1 the “Optical Density (OD)” value was 1.23 OD.
B2 was tested, and the “Optical Density (OD)” value was 1.39 OD.
For B3, the “Optical Density (OD)” value was 1.12 OD.

These binders were tested against T3, chimeric CD1a pool B protein [human CD1a lipid binding domain, mouse CD1d Ig domain] (human; mouse, UniProt P06126 18-201; P11609 205-297, limits assumed) (assay: ELISA, 100 µg/ml antibody).
T3 sequence (P06126 other isoform, or with tags, fused parts or gaps mutant limits assumed): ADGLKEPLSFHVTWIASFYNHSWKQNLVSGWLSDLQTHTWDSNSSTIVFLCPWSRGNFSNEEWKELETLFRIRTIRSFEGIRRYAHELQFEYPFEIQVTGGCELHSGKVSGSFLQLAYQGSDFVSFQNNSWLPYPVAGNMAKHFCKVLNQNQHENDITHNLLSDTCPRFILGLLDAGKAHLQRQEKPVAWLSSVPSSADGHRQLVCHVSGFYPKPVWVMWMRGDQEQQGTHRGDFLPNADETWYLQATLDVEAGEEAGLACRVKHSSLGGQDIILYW
Protocol: as §1
(§2) The antibodies were titrated through a dilution series and compared to a control rabbit IgG antibody. […] Data shown for purified antibodies.
B1 was tested, and the “Optical Density (OD)” value was 1.4 OD.
With B2 the “Optical Density (OD)” value was 1.27 OD.
B3 was tested, and the “Optical Density (OD)” value was 1.27 OD.

What follows are binders tested against T3, chimeric CD1a pool B protein [human … (assay: ELISA, 3.16 µg/ml antibody).
Protocol: as §1, §2
In the case of B1, the “Optical Density (OD)” value is reported as 1.53 OD.
For B2, the “Optical Density (OD)” value was 1.28 OD.
With B3 the “Optical Density (OD)” value was 1.41 OD.

Each binder was assayed against T3, chimeric CD1a pool B protein [human … (assay: ELISA, 0.316 µg/ml antibody).
Protocol: as §1, §2
For B1, the “Optical Density (OD)” value was 1.24 OD.
For B2, the “Optical Density (OD)” value was 1.28 OD.
For B3, the “Optical Density (OD)” value was 1.32 OD.

Each binder was assayed against T4, human CD1b expressed on HEK-293 cells (human, UniProt P29016 18-333; P61769 21-119) (assay: flow cytometry, HEK-293 cells).
T4 construct: also called HEK - CD1b
Protocol: (§3) Binding to proteins expressed on HEK, C1R and MOLT4 cell lines was assessed. […] The C1R-CD1a, C1R-empty vector and MOLT4 cell lines were washed in 1×PBS on the day required. All cell lines were counted and resuspended in 1×PBS and then stained for 30 minutes at 37° C. using the DiI or DiO cellular stains (Invitrogen). Cells were washed with flow cytometry buffer (1% bovine serum albumin, 2 mM EDTA and 0.1% sodium azide in PBS) before mixing 2 DiI-stained and DiO-stained populations together. The cells (20 μl/well) were then added to dilutions of antibody sample (B cell culture supernatant, TAP supernatant, clone supernatant, purified antibody solution) (20 μl/well) and incubated for 1 hour at 4° C. in a flow cytometry assay plate, before being washed with flow cytometry buffer. 10 μl/well of Alexafluor647-conjugated goat anti-species IgG Fc-specific F(ab′)2 fragment (Jackson ImmunoResearch), diluted 1:2500 in flow cytometry buffer, was added and incubated at 4° C. for 30 minutes, followed by washing with wash buffer. The fluorescence intensity was then measured on an iQue screener PLUS.
(§4) HEK-293 cells were transiently transfected with human CD1a, CD1b, CD1c or CD1d and co-transfected with human β2M.
B1: no binding (tested: 100 µg/ml (highest tested)).
B2: no binding (tested: 100 µg/ml (highest tested)).
B3: no binding (tested: 100 µg/ml (highest tested)).

Each binder was assayed against T5, human CD1c expressed on HEK-293 cells (human, UniProt P29017 18-333; P61769 21-119) (assay: flow cytometry, HEK-293 cells).
T5 construct: also called HEK - CD1c
Protocol: as §3, §4
B1: no binding (tested: 100 µg/ml (highest tested)).
B2: no binding (tested: 100 µg/ml (highest tested)).
B3: no binding (tested: 100 µg/ml (highest tested)).

Each binder was assayed against T6, human CD1d expressed on HEK-293 cells (human, UniProt P15813 20-335; P61769 21-119) (assay: flow cytometry, HEK-293 cells).
T6 construct: also called HEK - CD1d
Protocol: as §3, §4
B1: no binding (tested: 100 µg/ml (highest tested)).
B2: no binding (tested: 100 µg/ml (highest tested)).
B3: no binding (tested: 100 µg/ml (highest tested)).

These binders were tested against T7, human CD1a expressed on cells (human, UniProt P06126 17-327; P61769 21-119) (assay: flow cytometry, C1R cells, 100 µg/ml antibody).
T7 construct: also called HEK - CD1a; C1R - CD1a
Protocol: as §3
(§5) Binding was quantified as fold change in fluorescence intensity geomean over background assessed by flow cytometry.
B1 was tested, and the “Fluorescence Intensity Geomean (normalized to background)” value was 4.8 fold over background.
In the case of B2, the “Fluorescence Intensity Geomean (normalized to background)” value is reported as 0.9 fold over background.
With B3 the “Fluorescence Intensity Geomean (normalized to background)” value was 7.3 fold over background.

These binders were tested against T7, human CD1a expressed on cells (assay: flow cytometry, HEK-293 cells, 1 µg/ml antibody).
Protocol: as §3, §4
B1 was tested, and the “Fluorescence Intensity Geomean (normalized to background)” value was 49.2 fold over background.
For B2, the “Fluorescence Intensity Geomean (normalized to background)” value was 41.9 fold over background.
With B3 the “Fluorescence Intensity Geomean (normalized to background)” value was 42 fold over background.

The binders below were run against T4, human CD1b expressed on HEK-293 cells (assay: flow cytometry, HEK-293 cells, 1 µg/ml antibody).
Protocol: as §3, §4
B1 was tested, and the “Fluorescence Intensity Geomean (normalized to background)” value was 1.1 fold over background.
For B2, the “Fluorescence Intensity Geomean (normalized to background)” value was 1.1 fold over background.
With B3 the “Fluorescence Intensity Geomean (normalized to background)” value was 1 fold over background.

What follows are binders tested against T5, human CD1c expressed on HEK-293 cells (assay: flow cytometry, HEK-293 cells, 1 µg/ml antibody).
Protocol: as §3, §4
In the case of B1, the “Fluorescence Intensity Geomean (normalized to background)” value is reported as 1.1 fold over background.
With B2 the “Fluorescence Intensity Geomean (normalized to background)” value was 1 fold over background.
With B3 the “Fluorescence Intensity Geomean (normalized to background)” value was 1.1 fold over background.

The binders below were run against T6, human CD1d expressed on HEK-293 cells (assay: flow cytometry, HEK-293 cells, 1 µg/ml antibody).
Protocol: as §3, §4
For B1, the “Fluorescence Intensity Geomean (normalized to background)” value was 1.1 fold over background.
For B2, the “Fluorescence Intensity Geomean (normalized to background)” value was 1 fold over background.
With B3 the “Fluorescence Intensity Geomean (normalized to background)” value was 1.1 fold over background.

These binders were tested against T7, human CD1a expressed on cells (assay: flow cytometry, MOLT4 cells, 100 µg/ml antibody).
Protocol: (§6) CD1a-specific antibodies were identified by flow cytometry. Binding to proteins expressed on HEK, C1R and MOLT4 cell lines was assessed. […] The C1R-CD1a, C1R-empty vector and MOLT4 cell lines were washed in 1×PBS on the day required. All cell lines were counted and resuspended in 1×PBS and then stained for 30 minutes at 37° C. using the DiI or DiO cellular stains (Invitrogen). Cells were washed with flow cytometry buffer (1% bovine serum albumin, 2 mM EDTA and 0.1% sodium azide in PBS) before mixing 2 DiI-stained and DiO-stained populations together. The cells (20 μl/well) were then added to dilutions of antibody sample (B cell culture supernatant, TAP supernatant, clone supernatant, purified antibody solution) (20 μl/well) and incubated for 1 hour at 4° C. in a flow cytometry assay plate, before being washed with flow cytometry buffer. 10 μl/well of Alexafluor647-conjugated goat anti-species IgG Fc-specific F(ab′)2 fragment (Jackson ImmunoResearch), diluted 1:2500 in flow cytometry buffer, was added and incubated at 4° C. for 30 minutes, followed by washing with wash buffer. The fluorescence intensity was then measured on an iQue screener PLUS.
as §5
B1 was tested, and the “Fluorescence Intensity Geomean (normalized to background)” value was 5.2 fold over background.
B2 was tested, and the “Fluorescence Intensity Geomean (normalized to background)” value was 0.8 fold over background.
With B3 the “Fluorescence Intensity Geomean (normalized to background)” value was 3.9 fold over background.

Each binder was assayed against Cynomolgus monkey CD1a expressed on HEK-293 cells (Cynomolgus monkey, UniProt A0A2K5VQ68 17-326) (assay: flow cytometry, HEK-293 cells, 0.1 µg/ml antibody).
Cynomolgus monkey CD1a expressed on HEK-293 cells, sequence (A0A2K5VQ68 entry or part of it): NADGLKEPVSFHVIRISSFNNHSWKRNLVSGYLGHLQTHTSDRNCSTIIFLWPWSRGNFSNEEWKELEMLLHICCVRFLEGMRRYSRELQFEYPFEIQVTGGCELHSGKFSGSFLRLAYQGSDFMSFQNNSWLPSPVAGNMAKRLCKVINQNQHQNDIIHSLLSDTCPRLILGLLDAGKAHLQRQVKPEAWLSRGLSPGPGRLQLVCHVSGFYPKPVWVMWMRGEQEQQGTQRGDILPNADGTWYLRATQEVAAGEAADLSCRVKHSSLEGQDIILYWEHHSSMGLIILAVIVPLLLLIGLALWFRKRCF
Protocol: as §3, §5
With B1 the “Fluorescence Intensity Geomean (normalized to background)” value was 3.3 fold over background.
For B2, the “Fluorescence Intensity Geomean (normalized to background)” value was 5.7 fold over background.
For B3, the “Fluorescence Intensity Geomean (normalized to background)” value was 25.8 fold over background.

The binders below were run against T7, human CD1a expressed on cells (assay: flow cytometry, HEK-293 cells, 3.16 µg/ml antibody).
Protocol: as §3, §4
For B1, the “Fluorescence Intensity Geomean (normalized to background)” value was 31.5 fold over background.
With B2 the “Fluorescence Intensity Geomean (normalized to background)” value was 23.3 fold over background.
B3 was tested, and the “Fluorescence Intensity Geomean (normalized to background)” value was 24.9 fold over background.

Each binder was assayed against T4, human CD1b expressed on HEK-293 cells (assay: flow cytometry, HEK-293 cells, 3.16 µg/ml antibody).
Protocol: as §3, §4
For B1, the “Fluorescence Intensity Geomean (normalized to background)” value was 1.1 fold over background.
In the case of B2, the “Fluorescence Intensity Geomean (normalized to background)” value is reported as 0.9 fold over background.
B3 was tested, and the “Fluorescence Intensity Geomean (normalized to background)” value was 1.1 fold over background.

The binders below were run against T5, human CD1c expressed on HEK-293 cells (assay: flow cytometry, HEK-293 cells, 3.16 µg/ml antibody).
Protocol: as §3, §4
With B1 the “Fluorescence Intensity Geomean (normalized to background)” value was 1.1 fold over background.
For B2, the “Fluorescence Intensity Geomean (normalized to background)” value was 0.9 fold over background.
For B3, the “Fluorescence Intensity Geomean (normalized to background)” value was 1.1 fold over background.

What follows are binders tested against T6, human CD1d expressed on HEK-293 cells (assay: flow cytometry, HEK-293 cells, 3.16 µg/ml antibody).
Protocol: as §3, §4
In the case of B1, the “Fluorescence Intensity Geomean (normalized to background)” value is reported as 1 fold over background.
For B2, the “Fluorescence Intensity Geomean (normalized to background)” value was 0.9 fold over background.
For B3, the “Fluorescence Intensity Geomean (normalized to background)” value was 1.1 fold over background.

What follows are binders tested against T7, human CD1a expressed on cells (assay: flow cytometry, MOLT4 cells, 0.0316 µg/ml antibody).
Protocol: as §6, §5
For B1, the “Fluorescence Intensity Geomean (normalized to background)” value was 1.6 fold over background.
In the case of B2, the “Fluorescence Intensity Geomean (normalized to background)” value is reported as 8.7 fold over background.
With B3 the “Fluorescence Intensity Geomean (normalized to background)” value was 12.4 fold over background.

What follows are binders tested against T7, human CD1a expressed on cells (assay: flow cytometry, HEK-293 cells, 0.316 µg/ml antibody).
Protocol: as §3, §4
B1 was tested, and the “Fluorescence Intensity Geomean (normalized to background)” value was 38.3 fold over background.
With B2 the “Fluorescence Intensity Geomean (normalized to background)” value was 58.6 fold over background.
B3 was tested, and the “Fluorescence Intensity Geomean (normalized to background)” value was 30.8 fold over background.

Each binder was assayed against T4, human CD1b expressed on HEK-293 cells in the same assay as above.
Protocol: as §3, §4
For B1, the “Fluorescence Intensity Geomean (normalized to background)” value was 1 fold over background.
For B2, the “Fluorescence Intensity Geomean (normalized to background)” value was 1.1 fold over background.
With B3 the “Fluorescence Intensity Geomean (normalized to background)” value was 1 fold over background.

What follows are binders tested against T5, human CD1c expressed on HEK-293 cells in the same assay as above.
Protocol: as §3, §4
B1 was tested, and the “Fluorescence Intensity Geomean (normalized to background)” value was 0.9 fold over background.
B2 was tested, and the “Fluorescence Intensity Geomean (normalized to background)” value was 1 fold over background.
In the case of B3, the “Fluorescence Intensity Geomean (normalized to background)” value is reported as 1 fold over background.

What follows are binders tested against T6, human CD1d expressed on HEK-293 cells in the same assay as above.
Protocol: as §3, §4
With B1 the “Fluorescence Intensity Geomean (normalized to background)” value was 1 fold over background.
With B2 the “Fluorescence Intensity Geomean (normalized to background)” value was 1 fold over background.
In the case of B3, the “Fluorescence Intensity Geomean (normalized to background)” value is reported as 0.9 fold over background.
